Experimental data published in patent publication US20060142189A1.

Tests used:
Experiment in all cases: cell-based or functional assay
[1] = biological target: myc-L1-CAM-YF (rat (variant of rat L1-CAM)) (UniProt Q05695)
[2] = biological target: myc-L1-CAM (myc-tagged rat L1-CAM variant expressed from pMyc-L1-CAM) (rat (variant of rat L1-CAM)) (UniProt Q05695)
[3] = biological target: myc-L1-CAM-YH (rat (variant of rat L1-CAM)) (UniProt Q05695)
[4] = biological target: cell-surface L1-CAM of mouse cerebellar granular neurons (mouse) (UniProt P11627)
cell-surface L1-CAM of mouse cerebellar granular neurons (mouse), sequence (P11627 20-1260): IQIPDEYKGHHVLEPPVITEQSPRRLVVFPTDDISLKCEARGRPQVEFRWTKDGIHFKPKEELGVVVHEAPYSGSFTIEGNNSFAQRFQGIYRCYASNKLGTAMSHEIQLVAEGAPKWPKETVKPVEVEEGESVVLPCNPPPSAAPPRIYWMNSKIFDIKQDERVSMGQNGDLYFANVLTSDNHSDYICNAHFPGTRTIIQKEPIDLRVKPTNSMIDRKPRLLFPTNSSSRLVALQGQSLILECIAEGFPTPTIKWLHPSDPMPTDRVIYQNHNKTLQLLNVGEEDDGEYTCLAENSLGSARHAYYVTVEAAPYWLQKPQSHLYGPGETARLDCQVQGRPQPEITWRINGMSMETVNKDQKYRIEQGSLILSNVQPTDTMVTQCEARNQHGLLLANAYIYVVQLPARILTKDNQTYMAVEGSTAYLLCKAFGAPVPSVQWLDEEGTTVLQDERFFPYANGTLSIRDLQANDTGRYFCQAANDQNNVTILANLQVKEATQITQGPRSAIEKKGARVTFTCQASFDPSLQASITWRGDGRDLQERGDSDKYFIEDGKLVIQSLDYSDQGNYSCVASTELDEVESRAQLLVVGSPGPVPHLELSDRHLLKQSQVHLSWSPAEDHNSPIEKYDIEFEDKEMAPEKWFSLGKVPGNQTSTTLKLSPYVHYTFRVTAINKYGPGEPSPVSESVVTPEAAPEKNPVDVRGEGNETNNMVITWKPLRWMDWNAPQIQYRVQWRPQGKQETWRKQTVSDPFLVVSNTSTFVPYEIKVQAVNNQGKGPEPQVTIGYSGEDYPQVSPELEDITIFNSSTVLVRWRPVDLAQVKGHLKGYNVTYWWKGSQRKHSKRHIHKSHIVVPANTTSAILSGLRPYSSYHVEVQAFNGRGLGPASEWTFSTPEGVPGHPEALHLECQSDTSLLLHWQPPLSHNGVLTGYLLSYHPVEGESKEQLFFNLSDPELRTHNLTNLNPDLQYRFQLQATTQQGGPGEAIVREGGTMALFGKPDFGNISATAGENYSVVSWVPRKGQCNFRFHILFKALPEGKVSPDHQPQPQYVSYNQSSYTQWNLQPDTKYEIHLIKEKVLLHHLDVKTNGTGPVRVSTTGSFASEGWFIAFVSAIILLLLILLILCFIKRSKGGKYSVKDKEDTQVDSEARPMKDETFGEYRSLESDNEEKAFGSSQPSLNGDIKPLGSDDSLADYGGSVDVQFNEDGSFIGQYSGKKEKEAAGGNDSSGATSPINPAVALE

myc-L1-CAM (myc-tagged rat L1-CAM variant expressed from pMyc-L1-CAM) (rat (variant of rat L1-CAM)), sequence (Q05695 other isoform, or with tags, fused parts or gaps mutant limits assumed): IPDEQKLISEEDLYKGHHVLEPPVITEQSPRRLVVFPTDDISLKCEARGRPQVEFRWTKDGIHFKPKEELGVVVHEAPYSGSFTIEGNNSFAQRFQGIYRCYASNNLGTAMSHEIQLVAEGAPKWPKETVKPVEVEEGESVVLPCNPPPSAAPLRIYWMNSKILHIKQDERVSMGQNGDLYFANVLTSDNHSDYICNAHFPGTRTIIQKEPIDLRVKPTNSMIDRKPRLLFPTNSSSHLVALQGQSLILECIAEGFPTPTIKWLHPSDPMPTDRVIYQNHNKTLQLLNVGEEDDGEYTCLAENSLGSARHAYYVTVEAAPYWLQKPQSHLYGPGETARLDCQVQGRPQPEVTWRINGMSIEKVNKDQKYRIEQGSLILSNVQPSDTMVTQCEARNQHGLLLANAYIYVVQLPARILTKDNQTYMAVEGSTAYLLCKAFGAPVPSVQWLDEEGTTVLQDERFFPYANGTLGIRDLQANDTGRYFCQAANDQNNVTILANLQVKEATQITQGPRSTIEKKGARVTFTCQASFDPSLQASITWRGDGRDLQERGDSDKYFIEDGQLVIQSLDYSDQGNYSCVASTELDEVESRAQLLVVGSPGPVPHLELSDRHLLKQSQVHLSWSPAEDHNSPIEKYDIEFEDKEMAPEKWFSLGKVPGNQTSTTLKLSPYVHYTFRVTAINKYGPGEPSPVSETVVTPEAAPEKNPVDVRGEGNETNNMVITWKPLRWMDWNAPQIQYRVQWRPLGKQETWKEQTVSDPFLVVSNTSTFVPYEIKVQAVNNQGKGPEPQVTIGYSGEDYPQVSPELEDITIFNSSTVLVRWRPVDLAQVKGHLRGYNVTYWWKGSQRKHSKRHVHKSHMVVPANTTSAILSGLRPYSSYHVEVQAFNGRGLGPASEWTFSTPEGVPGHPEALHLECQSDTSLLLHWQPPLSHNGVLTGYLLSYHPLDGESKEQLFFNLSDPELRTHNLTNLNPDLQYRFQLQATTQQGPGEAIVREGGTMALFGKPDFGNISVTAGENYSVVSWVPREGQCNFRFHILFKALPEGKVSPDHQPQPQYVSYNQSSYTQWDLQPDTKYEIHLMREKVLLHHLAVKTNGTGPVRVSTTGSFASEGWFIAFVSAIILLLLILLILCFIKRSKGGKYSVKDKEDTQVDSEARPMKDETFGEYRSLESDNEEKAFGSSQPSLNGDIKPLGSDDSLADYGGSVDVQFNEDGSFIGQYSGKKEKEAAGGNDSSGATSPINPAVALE
myc-L1-CAM-YH (rat (variant of rat L1-CAM)), sequence (Q05695 other isoform, or with tags, fused parts or gaps mutant): as the sequence (Q05695 other isoform, or with tags, fused parts or gaps mutant limits assumed) above
myc-L1-CAM-YF (rat (variant of rat L1-CAM)), sequence (Q05695 other isoform, or with tags, fused parts or gaps mutant): as the sequence (Q05695 other isoform, or with tags, fused parts or gaps mutant limits assumed) above

% of trials with retrograde movement of L1-CAM-bound beads [1] [%]	% of trials with stationary behavior of L1-CAM-bound beads [1] [%]	% of trials with retrograde movement of L1-CAM-bound beads (wild-type, untreated ND-7 cells) [2] [%]	% of trials with retrograde transport of 9E10-coated beads (wild-type L1-CAM) [2] [%]	% of trials with retrograde transport of L1-CAM-bound beads after NGF treatment (100 ng/mL, 1 hour) [2] [%]	% of trials with stationary behavior of L1-CAM-bound beads (wild-type, untreated ND-7 cells) [2] [%]	% of trials with stationary behavior of L1-CAM-bound beads after NGF treatment (100 ng/mL, 1 hour) [2] [%]	% of trials with retrograde movement of L1-CAM-bound beads [3] [%]	% of trials with stationary behavior of L1-CAM-bound beads [3] [%]	neurite extension of mouse cerebellar granular neurons on Ng-CAM after 24 h, with AP-YF peptide (30 µg/ml) [4] [µm]	neurite extension of mouse cerebellar granular neurons on Ng-CAM after 24 h, with control AP-Scramble peptide [4] [µm]	neurite extension on Ng-CAM with AP-YF above the level with control peptide [4] [%]	Substance
37.5	62.5	61.9	68.9	100	28.6	18.2	92.9	0				ankyrin B (endogenous in ND-7 cells)
									32	21	55	chick Ng-CAM (chick homolog of L1-CAM) (from UniProt Q03696 21-1266) (receptor)
